The sequences below were run on MS2 coat protein (assay: apparent KD of MS2 coat protein, switch OFF state (with FMN for OFF switches, without FMN for ON switches); designed switch direction (-1 OFF switch, 1 ON switch): 1; higher = weaker reporter binding). Settings: FMN input: 0 or 200 uM; Eterna round: R93 (includes R88 designs).
Outline: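 Apparent KD stands for the median, per design, of fits to normalised cluster binding curves. The curves came from titrating on-chip-transcribed RNA switches on Illumina sequencing clusters with SNAP-549-labelled MS2 coat protein, twofold from 0.7 or 1.5 nM to 3 µM. Buffer was 100 mM Tris-HCl pH 7.5, 80 mM KCl, 4 mM MgCl2, without or with constant ligand.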

Sequence	apparent KD of MS2 coat protein [nM]
AACAUACAUGAGGAUCACCCAUGUUCCGGCAGGUCAGGAUAUAUAUCGAAAGAGUUAUAAAUAGAAGGGACAUAAA [JR_SS001_Sub009]	60.7
AAAUAGUGCACUAAGGAUAUGUCGCAUGACACAUGAGGAUCACCCAUGUGGUAACACAGAGGGUGGCAGAAGGUAGUGUGCAAAC [Mod 2 of Pariah 6 (Round1) by Hyphema]	446
GAAAAACAUGAGGAUCACCCAUGUGAUAAUAUGGGAGGAUAUACAAAGACGAAAGUCAAAGUAGAAGGCCUAAAAG [Garnet 35]	73.2
GAGAUACAUGAGGAUCACCCAUGUUGAAAUAUGGGAGGAUAUACAAGGUCGAAAGAUAAGGUAGAAGGCCUAAAAG [LROPPY Same State 1 - v03_deltaG=1.1]	176
AGAAAGAAUAGAGAGGAUAUCUAUAAGAAAACAUGAGGAUCACCCAUGUAAAAGAAAAGAAAAUGGGAGAAGGCUCAUAAGAAAG [JL Skelter Mod 6 In the Red]	71.6
AAGAAACAUGAGGAUCACCCAUGUAAGAUAAACACAGGAUAUGCGAAAAGAAACAAAGAAGCAGAAGGGUGAAGAA [Ex5 sub 1]	35.7
AGAAAACAUGAGGAUCACCCAUGUGAUAAUAUGGGAGGAUAUACGAAGACGAAAGUCGACGUAGAAGGCCUAAAGA [Garnet 48]	70.8
AAAUAAAGGACUGAGGAUAUACCACAUGAAACAUGAGGAUCACCCAUGUUGAAAAACAGAGGGUGGUAGAAGGUAGUCCACAAAC [Same State 2.5b ( so lets mod hyphema)]	51.3
GAAGACAUAGUUCAGGAUAUAGGAAUAGUCACAUGAGGAUCACCCAUGUGCAUUUAUAUGCGCGCUUAGAAGGGAGGUAGAUAUA [SameState2 Malc#20]	20.8
AAAUAAAAAAAAGAGGAUAUUCAUGUGAAAACAUGAGGAUCACCCAUGUAAAAAAAUAAAAAUAAAAAGAAGGAAAAAUAAAAAA [SS2: 83 No MS2]	25.1
GACAGACAUGAGGAUCACCCAUGUACAAACGUACAAGGAUAUGUGUGGAAACCGUACUAUACAGAAGGUGUCUGUC [SS1 - 90]	90.3
AGAAGACAUGAGGAUCACCCAUGUGGGAAUAUGGGAGGAUAUACAAAGACGAGAGUCAGAGUAGAAGGCCUAGGAC [salish99-ss1-94]	81
AGGAGACAUGAGGAUCACCCAUGUGAGAAGAGGCGAGGAUAUCGAAAGAAAGAAGAGAAACGAGAAGGCGCGAGGC [salish99-SS1-031]	23.5
AAAACACAUGAGGAUCACCCAUGUAAAAACAUGGGAGGAUAUGCAUGGAAAACAUGCUAUGCAGAAGGCUCAUGUG [SS1 - 6]	17.2
AAACCACAUGAGGAUCACCCAUGUAAAAUAUACAUAGGAUAUGCGAAAAGAAACAAAGAAGCAGAAGGGUGAAAAA [75%, Ex sub1, 16]	32.1
AGCAUAGACAGAGAGGAUAUCCACGAGACAACAUGAGGAUCACCCAUGUGAUAGAGAAUACGAUGGGAGAAGGCUCGCGGUACGA [Topaz 50]	61.3
AGCAUAGACAGAGAGGAUAUCCACGAGACAACAUGAGGAUCACCCAUGUGAAAGAGAAUACGAUGGGAGAAGGCUCGCGAUACGA [Topaz 49]	19.7
AAAAAACAUGAGGAUCACCCAUGUAAAAAUAUGGAAGGAUAUGGAAACACGAAAGUGAAACCAGAAGGUCUAAAAG [77%, Mat - Mod of Eli, 10]	21.3
AAAUUACAUGAGGAUCACCCAUGUUUAAAAAAUAUAGGAUAUGUAAAAAAAAAAAAAAAAACAGAAGGGUAAAAAA [I 'NO' this state well]	25.4
AGGAAACAUGAGGAUCACCCAUGUCUAAAUAUGGGAGGAUAUGCACAAAAGGAAAUAACUGCAGAAGGCCUAAAAA [62%, Redo, 4]	103
AAGAAACAUGAGGAUCACCCAUGUAGAAAUAUGGGAGGAUAUACAAGGACGAGAGUCAAGGUAGAAGGCCUAAGAA [Mat - Same State 1 - Meechl mod - D134]	111
GGGAAUAAAAGAGAGGAUAUCCAAAGGAAAACAUGAGGAUCACCCAUGUAAAAGGAAGGAAAUUGGGAGAAGGCUCAAGAUAGGG [salish99-ss2-012]	26.1

Sequence	apparent KD of MS2 coat protein [nM]
AUAUGACAUGAGGAUCACCCAUGUAUUCGAGCAUGAGGAUAUAUGACUAGUCAUAGGAGGAUAGAAGGCAUGGUUG [JR_SS001_Sub1217]	169
GAGAAGAAGAGAGAGGAUAUCCAAAGGAAAACAUGAGGAUCACCCAUGUAAAAGGUAGGAAAUUGGGAGAAGGCUCAGAAGAGGG [salish99-ss2-030]	26.6
AAAGAAAAACUAGAGGAUAUCCGAGUGGUAACAUGAGGAUCACCCAUGUGAAGAAAGGAACAUAUGGAGAAGGCUAGAAGAAAAA [JL Nando Mod 4]	438
UAUCAUUACACGAAGGAUAUCGAAAAAAGAACAUGAGGAUCACCCAUGUGAAAUAAAAUACAGAACGAGAAGGUCGAGGGUGAAG [JR_SS002_Sub702]	30.3
CUGGAACAUGAGGAUCACCCAUGUCACAGAAACUGAGGAUAUGGGCGCUAACAAGCAUGACCAGAAGGCAGACACG [Mamaes]	27.2
AAGAAACAUGAGGAUCACCCAUGUGAUAAUAUGGGAGGAUAUACAAGGACGUAAGUCAAGGUAGAAGGCCUAAGAA [Mat - Same State 1 - Meechl mod - D140]	61.6
AAAAAACAUGAGGAUCACCCAUGUAAAAAAAACACAGGAUAUCCCUUUUAAAAAAAAAAAGGAGAAGGGUGAAAAA [Nob's Hobby 5 - Jieux - Same State 1]	29.9
UUUCAUUACACGAAGGAUAUCGCUUUUCCGACAUGAGGAUCACCCAUGUAGUAGACCUCCCUGUUCGAGAAGGUCGCGGGUGAAC [JR_SS002_Sub604]	32.4
AUAAGACAUGAGGAUCACCCAUGUAUUAGAGCAUGAGGAUAUAUGAAUAGUAAUAGGAGGAUAGAAGGCAUGGUUG [JR_SS001_Sub1218]	138
AGAAAUAAAAGAGAGGAUAUUCAAAAAGGGACAUGAGGAUCACCCAUGUAAAAGAAAAUAAAAUGGGAGAAGGCUCAAAAUAAAG [80%, More Helter Skelter 2]	61.7
AAACCACAUGAGGAUCACCCAUGUAGAAAUAUGGGAGGAUAUACGAAAACGAAAGUCAAAGUAGAAGGCCUAAAAG [saturn 2]	129
AAAAUACAUGAGGAUCACCCAUGUGAAAAUAUGGGAGGAUAUCAUGGAAAAAAAAAAACAUGAGAAGGCCCAAAAA [SS! 1 MT 10]	104
AAAGAAAAACUAGAGGAUAUCUGAAUGAUAACAUGAGGAUCACCCAUGUGAAGAAAGGAAUAUGAGGAGAAGGCUAGAAGAAAAA [JL Nando mod 19]	44.9
UAUCAUUACACGAAGGAUAUCGAAAAAAGAACAUGAGGAUCACCCAUGUAAAAUAAAACACAGAACGAGAAGGUCGAGGGUGAAG [JR_SS002_Sub701]	34.2
GAAAAACAUGAGGAUCACCCAUGUGAGAUAAACACAGGAUAUGCGAAAAGAAACAAAUAAGCAGAAGGGUGAAAAG [Mat - Same State 1 - Tesla mod - 81]	282
UAAAAAAAAAGGCAGGAUAUCCAAAAUAAAACAUGAGGAUCACCCAUGUAAAAAAAAAAAAAAUGGGAGAAGGGCCAAAAAAAAU [Mat - Same State 2 - Mod - 159]	27
GAAAAACAUGAGGAUCACCCAUGUGAAAAUAUGGGAGGAUAUACAAAGACGAAAGUCAAAGUAGAAGGCCUAAGAG [Garnet 34]	72
AAAAGACAUGAGGAUCACCCAUGUCGAAAGACAUGAGGAUAUGUACAGACUUCGGUCUGUACAGAAGGCAUGAAAA [SS1 - 1067]	68.7
AUAAAUAAUGGUAAGGAUAUCCAAAAGAAAACAUGAGGAUCACCCAUGUAAAAGAAAAUAGUGUGGGAGAAGGUACCAUAUAAAU [SS2 M 15]	41.6
GAAAAACAUGAGGAUCACCCAUGUAGAAAUAUGGGAGGAUAUACUAAGACGAAAGUCGAAGUAGAAGGCCUAAAAG [Same State 1.4f (Mat - Mod of Eli - )]	54.2
AAACCACAUGAGGAUCACCCAUGUCAAGAGAGACUAGGAUAUCUGAAUUAAUUAAAUUAAGGAGAAGGAGUGAAAA [71%, Same state of confusion2, 3]	179

Source: the supplement of paper PMC9170038
